Data on 1 molecule can be found in US8329186B2, “Treatment of inflammation using BST2 inhibitor” (Isu Abxis Co., Ltd, priority 2004, dated 2012).

Test [1] relates to interleukin-2 (IL-2). Description: IL-2 expression in activated Jurkat cells (real-time RT-PCR). To be noted: 3-fold increased by Jurkat cell activation. In kind it is cell-based, human. Here is the method: Intracellular expression levels of specific genes were analyzed by real-time quantitative RT-PCR using ABI Prism 7900HT (Applied Biosystems, Foster City, Calif.) and a SYBR-Green assay kit. Primers and probes used were designed using Primer Express software (Applied Biosystems).
10 ng of single-stranded cDNA was placed in a reaction tube and subjected to multiplex TaqMan PCR (50 μl) using the TaqMan Universal PCR Master Mix. The relative amount of target cDNA was calculated using the comparative cycle threshold (CT) method. PCR products were analyzed by agarose gel electrophoresis.
The relative levels of a specific gene A were expressed as a change compared to a control sample (untransfected cells). […] The above experiments were carried out to quantify the expression of the Bst2 gene and interleukin-2.
When Jurkat cells (5×10^5 cells/ml) were incubated with anti-CD3 monoclonal antibody (OKT3: 10 μg/ml, BD Pharmingen) at 4° C. for 20 min and then with anti-mouse immunoglobulin polyclonal antibody (25 μg/ml, Zymed) 37° C. for 1 hr, cell aggregation occurred, and the cells were activated and induced to produce interleukin-2 (IL-2) (FIGS. 10 and 11). […] IL-2 mRNA levels upon T cell activation were measured by real-time RT-PCR (Example 3). […]

For test [2], the system named is TNF-alpha, IL-6, HMGB-1. Description: CLP sepsis model: plasma inflammatory proteins (ELISA). It counts as in vivo, rat. An excerpt: A rat model of sepsis was induced through cecal ligation and puncture (CLP) as described previously (Wichterman K A, Baue A E, Chaudry I H: Sepsis and septic shock-a review of laboratory models and a proposal. J Surg Res 29:189-201, 1980). An incision was made along the midline of the abdomen on an anesthetized animal. The cecum was exteriorized, ligated and punctured with a stainless steel needle. An appropriate amount of fecal matter was then extruded. The gauge of the needle, number of punctures and amount of fecal matter extruded are all factors in determining the severity of sepsis and mortality. […] The incision was sutured and appropriate post-operative care was administered. Sham-operated animals were subjected to similar laparotomy and intestinal manipulation, however, the cecum was neither ligated nor punctured. Immediately or 6 hours after the CLP procedure, animals were given intravenous injection of vehicle or a Bst2 decoy.
Blood samples were collected at 1, 3, 6, 18 and 24 hours post-CLP. Plasma levels of representative inflammatory response proteins were measured using ELISA kits; TNF-alpha(BD Biosciences, San Diego, Calif.) and IL-6(BD Biosciences, San Diego, Calif.) at 1, 3, and 6 hours, HMGB-1 (Shino-Test Corp., Japan) at 18 and 24 hours. Typically, after CLP in rodents, TNF-alpha spikes at 3 hours and IL-6 spikes at 6 hours.

B1: Bst2 decoy: soluble Bst2 protein fragment having the amino acid sequence of SEQ ID NO:1; extracellular region of human Bst2, six-histidine tag (protein)
chain: NSEACRDGLRAVMECRNVTHLLQQELTEAQKGFQDVEAQAATCNHTVMALMASLDAEKAQGQKKVEELEGEITTLNHKLQDASAEVERLRRENQVLSVRIADKKYYPSSQDHHHHHH
On to B1, for which the “expression of IL-2” value in test [1] is reported as “decreased again to the basal level”. Also, in test [2] (1, 3 and 6 hours post-CLP), the “plasma IL-6 spike” value is “substantially suppressed” and the “plasma TNF-alpha response” value is listed as “virtually absent”. The “plasma HMGB-1” value in test [2] (18 and 24 hours post-CLP) is “reducing both the amount and rate of increase”.
